Assay results taken from patent US20150201663.

Target: T1, E(Edans)-AAHAAK-(Dabcyl)-NH2 (not fully specified)
T1 chain: AAHAAK

B1: aspergillopepsin II (An01g00530) (protein)
chain: EDYSSNWAGAVLIGDGYTKVTGEFTVPSVSAGSSSSSGYGGGYGYYKNKRQSEEYCASAWVGIDGDTCETAILQTGVDFCYEDGQTSYDAWYEWYPDYAYDFNDITISEGDTIKVTVEATSKSSGSATVENLTTGQSVTHTFSGNVEGDLCETNAEWIVEDFESGDSLVAFADFGSVTFTNAEATSDGSTVGPSDATVMDIEQDGTVLTETSVSGDSVTVTYV
B1 was tested, and the “enzyme activity in relative fluorescent units (rfu) per minute per mg of protein; cleavage of FRET peptide at pH 4” value was “yields by the highest rfu value for aspergillopepsin II” and the “mass spectrometry of the substrate's cleavage fragments (E(Edans)-AAH and AAK-(Dabcyl)NH2)” value was “aspergillopepsin II cleaves histidine at the C-terminal in the E(Edans)-AAHAAK-(Dabcyl)NH2 substrate”.
